Assay results published in publication PMC9683001.
pKd: −log10 of the molar value.

System: AMV coat protein (CP) (Alfalfa mosaic virus)
Assay: EMSA
Conditions: 10 mM Na-phosphate pH 7.0, 1 mM EDTA, 5 U human placental RNase inhibitor, 10 uL, 30 min at room temperature; RNA preheated 65 C 5 min; 1.2% agarose gel in TAE

Substance | pKd
5'UTRΔ140 | 4.39
5'UTR-WT (AMV RNA3 5' UTR, plus strand) | 4.58
